Where a chain is given by its changes, count along the chain named. In names and notes the source's numbering stands.
Key:
purified protein = substrate: O=C(O)C(=O)O; assay: purified protein; details: pH 4.2, 25 °C
[1] = target: the molecule itself; assay: native gel or EMSA; native PAGE of the mutant proteins after purification, compared with WT (Fig. S3); self-assembly of the subunits
[2] = 50 mM poly buffer, 500 mM NaCl, Triton X-100, o-phenylenediamine, 1.93 Mn per subunit
[3] = same buffer, 0.58 Mn per subunit
[4] = same buffer, 0.55 Mn per subunit
[5] = same buffer, 1.89 Mn per subunit
[6] = same buffer, 1.34 Mn per subunit
[7] = same buffer, 0.33 Mn per subunit

B1: oxalate decarboxylase (OxDC) of Bacillus subtilis, wild type, His6-tagged (enzyme)
chain: MKKQNDIPQPIRGDKGATVKIPRNIERDRQNPDMLVPPETDHGTVSNMKFSFSDTHNRLEKGGYAREVTVRELPISENLASVNMRLKPGAIRELHWHKEAEWAYMIYGSARVTIVDEKGRSFIDDVGEGDLWYFPSGLPHSIQALEEGAEFLLVFDDGSFSENSTFQLTDWLAHTPKEVIAANFGVTKEEISNLPGKEKYIFENQLPGSLKDDIVEGPNGEVPYPFTYRLLEQEPIESEGGKVYIADSTNFKVSKTIASALVTVEPGAMRELHWHPNTHEWQYYISGKARMTVFASDGHARTFNYQAGDVGYVPFAMGHYVENIGDEPLVFLEIFKDDHYADVSLNQWLAMLPETFVQAHLDLGKDFTDVLSKEKHPVVKKKCSK
notes: oxalate decarboxylase (OxDC), Bacillus subtilis, YvrK gene; Vector printed as PET32A with the YvrK gene; also called WT OxDC; WT; source: E. coli (overexpressed), purified (nickel-NTA, HiTrap Q anion exchange, Superdex 200 gel filtration)
Purified protein; [2]
  Km: 33.3 ± 0.4 mM
  kcat: 89.2 ± 1.4 s⁻¹
[1]
  binding result: binds

B2: oxalate decarboxylase (OxDC) of Bacillus subtilis, W96Y mutant, His6-tagged (enzyme)
chain: B1 chain with W96Y
notes: oxalate decarboxylase (OxDC), Bacillus subtilis, YvrK gene, with W96Y; 385 residues per subunit; Quaternary assembly in the crystal agrees with that of the hexameric wild type (5VG3); source: E. coli (overexpressed), purified (nickel-NTA, HiTrap Q anion exchange, Superdex 200 gel filtration)
[1]
  binding result: binds

B3: oxalate decarboxylase (OxDC) of Bacillus subtilis, W274F mutant, His6-tagged (enzyme)
chain: B1 chain with W274F
notes: oxalate decarboxylase (OxDC), Bacillus subtilis, YvrK gene, with W274F; 385 residues per subunit; Said to assemble like the wild type on native PAGE; no crystal structure; source: E. coli (overexpressed), purified (nickel-NTA, HiTrap Q anion exchange, Superdex 200 gel filtration)
Purified protein; [3]
  Km: 6.7 ± 0.3 mM
  kcat: 1.10 ± 0.03 s⁻¹
[1]
  binding result: binds

B4: oxalate decarboxylase (OxDC) of Bacillus subtilis, W96F/W274F double mutant, His6-tagged (enzyme)
chain: B1 chain with W96F, W274F
notes: oxalate decarboxylase (OxDC), Bacillus subtilis, YvrK gene, with W96F and W274F; 385 residues per subunit; Said to assemble like the wild type on native PAGE; no crystal structure; source: E. coli (overexpressed), purified (nickel-NTA, HiTrap Q anion exchange, Superdex 200 gel filtration)
[1]
  binding result: binds

B5: oxalate decarboxylase (OxDC) of Bacillus subtilis, W96F mutant, His6-tagged (enzyme)
chain: B1 chain with W96F
notes: oxalate decarboxylase (OxDC), Bacillus subtilis, YvrK gene, with W96F; 385 residues per subunit; Quaternary assembly in the crystal agrees with that of the hexameric wild type (5VG3); source: E. coli (overexpressed), purified (nickel-NTA, HiTrap Q anion exchange, Superdex 200 gel filtration)
Purified protein; [4]
  Km: 16.0 ± 1.5 mM
  kcat: 1.00 ± 0.03 s⁻¹
[1]
  binding result: binds

B6: oxalate decarboxylase (OxDC) of Bacillus subtilis, W96Y/W274Y double mutant, His6-tagged (enzyme)
chain: B1 chain with W96Y, W274Y
notes: oxalate decarboxylase (OxDC), Bacillus subtilis, YvrK gene, with W96Y and W274Y; 385 residues per subunit; Said to assemble like the wild type on native PAGE; no crystal structure; source: E. coli (overexpressed), purified (nickel-NTA, HiTrap Q anion exchange, Superdex 200 gel filtration)
[1]
  binding result: binds

B7: oxalate decarboxylase (OxDC) of Bacillus subtilis, W274Y mutant, His6-tagged (enzyme)
chain: B1 chain with W274Y
notes: oxalate decarboxylase (OxDC), Bacillus subtilis, YvrK gene, with W274Y; 385 residues per subunit; Said to assemble like the wild type on native PAGE; no crystal structure; source: E. coli (overexpressed), purified (nickel-NTA, HiTrap Q anion exchange, Superdex 200 gel filtration)
[1]
  binding result: binds

B8: oxalate decarboxylase (OxDC) (Bacillus subtilis subsp. subtilis str. 168; W274Y) (protein)
chain: B1 chain with W274Y
Purified protein; [5]
  Km: 10.3 ± 3.1 mM
  kcat: 23.9 ± 2.8 s⁻¹

B9: oxalate decarboxylase (OxDC) (Bacillus subtilis subsp. subtilis str. 168; W96Y) (protein)
chain: B1 chain with W96Y
Purified protein; [6]
  Km: 3.7 ± 0.9 mM
  kcat: 5.3 ± 0.9 s⁻¹

B10: oxalate decarboxylase (OxDC) (Bacillus subtilis subsp. subtilis str. 168; W274Y/W96Y) (protein)
chain: B1 chain with W96Y, W274Y
Purified protein; [7]
  Km: 5.6 ± 0.5 mM
  kcat: 0.20 ± 0.01 s⁻¹
